Laboratory results as given in patent publication US20130116185A1, “PHOSPHATIDYLINOSITOL 3-KINASES ACTIVITY REGULATOR INCLUDING THE FIFTH ZINC FINGER DOMAIN OF FOG2” (SNU R&DB FOUNDATION, priority 2010, published 2013).
Entries after “also recorded” stand apart in the source; their conditions may differ.

Legend:
[1] = molecular target: T1, PI3K (Homo sapiens, UniProt P27986); assay: IGF-1-induced PI3K activation in Hep3B cells incubated with peptides; format: cell-based; parameters: The cell lysates were immunoprecipitated with p85α (sc-1637, Santa Cruz) and Protein G-Sepharose beads; endogenous in cells; host or cells: Hep3B; details: 4 μM peptides, 48 hr, FIG. 2C
Experimental: (§1) For measurement of PI3K activity, 10 μl of sonicated PIP2 (1 μg/μl, Calbiochem), 10 μl of 100 mM MgCl2 and 1 μl of [-^32P]ATP (500 μCi/ml) were added to the kinase buffer (10 mM Tris-HCl (pH 7.4), 150 mM NaCl, 1 mM Na3VO4, 10 mM ZnCl2) and incubated at 37° C. for 30 min. After incubation, 20 μl of 6 N HCl was added to stop the reaction and PIP2 was extracted by treatment with 200 μl of methanol:chloroform (1:1) solution. The amount of radioactively labeled PIP2 in the extract was measured using a scintillator counter.
In addition, Hep3B liver cancer cells were incubated with 4 μM peptides for 48 hr and the PI3K activity was analyzed.

[2] = test system: MDA MB 231 cells; assay: Cell migration, modified Boyden chamber method; format: cell-based; details: 18 hr migration
Experimental: MDA MB 231 cells were transfected with pCK-flag (control), FOG2-wt (wild type) and FOG2 mutants having modified zinc finger domain (FOG2-ZF-5-m and FOG2-ZF-6-m). The cell migration was then analyzed using the modified Boyden chamber method (Albini A et al., Cancer Res 1987 47:3239-45). Following the transfection for 24 hr, MDA MB 231 cells (1×10^5) were suspended in a serum-free medium and seeded in triplicate in the upper part of BD chamber ([…] pore size). The lower part was filled with the serum-free medium. Following the incubation at 37° C. for 18 hr, non-migrating cells positioned at the upper surface of filters were cleaned with a cotton swab. The migrating cells passing through the lower surface of filters were fixed with 70% ethanol and treated with the Giemsa staining solution for 50 min. Then, the cells were rinsed with water and observed under a microscope. The cell migration rate was determined by counting the number of cells present in randomly-selected six sections and the migration range was expressed as the average number of cells per a microscopic field.
MDA MB 231 cells were incubated with 4 μM Mock (control, DMSO), 4 μM ZF-5-wt-24, 4 μM ZF-5-m-24, 4 μM ZF-5-wt-20 or 4 μM ZF-3-wt-21. After treatment, the cell migration was analyzed using the modified Boyden chamber method (Albini A et al., Cancer Res 1987 47:3239-45). After 2 days of treatment, MDA MB 231 cells (1×10^5) were suspended in the serum free medium and seeded in triplicate in the upper part of BD chamber ([…] pore size). The lower part was filled with the serum free medium. Following the incubation at 37° C. for 18 hr, non-migrating cells positioned at the upper surface of filters were cleaned with the cotton swab. The migrating cells passing through the lower side surface of filters were fixed with 70% ethanol and stained using the Giemsa stain method. The cell migration rate was determined by counting the number of cells present in randomly-selected six sections and the migration range was expressed as the average number of cells per a microscopic field.

[3] = molecular target: T1, PI3K; assay: PI3K activity in MDA MB 231 cells incubated with zinc finger domain peptides; format: cell-based; parameters: The cell lysates were immunoprecipitated with p85α (sc-1637, Santa Cruz) and Protein G-Sepharose beads; endogenous in cells
Experimental: as §1
For peptide treatment, cells were trypsinized to detach them from a culture dish and their aliquot (2×10^5 cells) was incubated with 4 μM peptides in 100 mm dishes. The control was incubated with Mock (DMSO).

[4] = test system: MDA MB 231 cells; assay: Cell proliferation MTT assay; format: cell-based
Experimental: Because the PI3K activation is critical in cell growth, the cell proliferation was analyzed to investigate the inhibitory effect of the FOG2 zinc finger domain using the MTT assay.
MDA MB 231 cells were seeded in a 96-well plate, and transfected with 100 ng DNA of pCKflag, FOG2-wt, FOG2-ZF-5-m or FOG2-ZF-6-m using Lipofectamine 2000. On 3 days post-transfection, the MTT assay was performed.
MDA MB 231 cells (2×10^3 cells) were seeded in a 96-well plate and treated with 4 μM each peptide for 3 days. After the treatment, 50 μl of MTT solution (2 mg/ml) was added to each well, incubated at 37° C. for 1 hr. Then, 150 μl of DMSO was added to each well and the absorbance value of each well was measured at 590 nm using a microplate reader.

[5] = molecular target: T2, p85α (Homo sapiens, UniProt P27986); assay: Interaction of FOG2 zinc finger domain with p85α (α-Flag immunoprecipitation, Western blot); format: binding; details: Hep3B cells, 2 days after transfection, FIG. 1B
T2 construct: subject to the Western blot analysis using p85α (sc-1637, Santa Cruz); endogenous in cells; host or cells: Hep3B
Excerpt: To reveal the region of FOG2 interacting with p85α as a subunit of PI3K, we numbered eight (8) zinc finger domains of FOG2. Then, mutated FOG2 with altered zinc finger domain (FOG-ZF-5-m and FOG-ZF-6-m) was manufactured by mutating two domains (known to interact with p85α) positioned at 413-789th amino acid residues of FOG2.
Hep3B cells were transfected with pCK-flag (control), FOG2-wt (wild type) and FOG2 mutants having modified the zinc finger domain (FOG2-ZF-5-m and FOG2-ZF-6-m). On 2 days after transfection, the lysates were obtained using the lysis buffer (20 mM Hepes (pH7.4), 100 mM NaCl, 20 mM KAc, 10 mM MgCl2, […], 1 mM Na3VO4, 5 mM NaF, 1% NPO4). The cell lysates were immunoprecipitated with the α-Flag (Sigma, A2220) and subject to the Western blot analysis using p85α (sc-1637, Santa Cruz) and α-Flag antibody (Sigma, F1804).

[6] = molecular target: T1, PI3K; assay: PI3K activity in Hep3B cells transfected with FOG2 constructs (p85α immunoprecipitation, 32P-ATP/PIP2 kinase assay); format: cell-based; parameters: The cell lysates were immunoprecipitated with p85α (sc-1637, Santa Cruz) and Protein G-Sepharose beads; endogenous in cells; host or cells: Hep3B
Experimental: To investigate the inhibitory effect to PI3K activity by FOG2 zinc finger domain, PI3K activity was analyzed using FOG2 mutants having modified zinc finger domain. Specially, it is known that IGF signaling pathway plays an important role in cancer and the increased IGF-1 level enhances the risk of various cancers in many researches.
Accordingly, the PI3K activity was increased by incubating Hep3B cells with IGF-1 and then measured when the cells were incubated with peptides having mutated FOG2 zinc finger domain.
After Hep3B cells incubation, 100 ng/ml IGF-1 (Insulin like growth factor-1) was added to the cells and incubated for 30 min.
Hep3B cells were transfected with pCK-flag (control), FOG2-wt (wild type) and FOG2 mutants having modified zinc finger domain (FOG2-ZF-5-m and FOG2-ZF-6-m). Two days later, the lysates were obtained using a lysis buffer (20 mM Hepes (pH7.4), 100 mM NaCl, 20 mM KAc, 10 mM MgCl2, 10 mM ZnCl2, 1 mM Na3VO4, 1% NPO4). The cell lysates were immunoprecipitated with p85α (sc-1637, Santa Cruz) and Protein G-Sepharose beads using the same method above. After binding to beads, the lysates were washed 2 times with the lysis buffer and one time with the wash buffer (0.1 M Tris-HCl (pH 7.4), 5 mM LiCl, and 0.1 mM Na3VO4).
as §1

[7] = test system: Akt; assay: Akt phosphorylation by Western blot in transfected Hep3B cells after IGF-1 stimulation; format: cell-based; details: FIG. 1D
Experimental: Hep3B cells were transfected with FOG2 mutants having modified zinc finger domain to measure the effect on the Akt signaling by FOG2-ZF-5m. The Akt activity was measured by analyzed Akt phosphorylation.
Hep3B cells were transfected with pCK-flag (control), FOG2-wt (wild type) and FOG2 mutants having modified zinc finger domain (FOG2-ZF-5-m and FOG2-ZF-6-m) and stimulated with IGF-1. The expression of Akt (Cell signaling Technology, USA), pAkt (Cell signaling Technology, USA) and GAPDH(Santa cruz, USA) were measured by Western blot analysis.

[8] = 4 μM peptide, 2 days of treatment, FIG. 3B

T1 sequence (P27986 whole entry): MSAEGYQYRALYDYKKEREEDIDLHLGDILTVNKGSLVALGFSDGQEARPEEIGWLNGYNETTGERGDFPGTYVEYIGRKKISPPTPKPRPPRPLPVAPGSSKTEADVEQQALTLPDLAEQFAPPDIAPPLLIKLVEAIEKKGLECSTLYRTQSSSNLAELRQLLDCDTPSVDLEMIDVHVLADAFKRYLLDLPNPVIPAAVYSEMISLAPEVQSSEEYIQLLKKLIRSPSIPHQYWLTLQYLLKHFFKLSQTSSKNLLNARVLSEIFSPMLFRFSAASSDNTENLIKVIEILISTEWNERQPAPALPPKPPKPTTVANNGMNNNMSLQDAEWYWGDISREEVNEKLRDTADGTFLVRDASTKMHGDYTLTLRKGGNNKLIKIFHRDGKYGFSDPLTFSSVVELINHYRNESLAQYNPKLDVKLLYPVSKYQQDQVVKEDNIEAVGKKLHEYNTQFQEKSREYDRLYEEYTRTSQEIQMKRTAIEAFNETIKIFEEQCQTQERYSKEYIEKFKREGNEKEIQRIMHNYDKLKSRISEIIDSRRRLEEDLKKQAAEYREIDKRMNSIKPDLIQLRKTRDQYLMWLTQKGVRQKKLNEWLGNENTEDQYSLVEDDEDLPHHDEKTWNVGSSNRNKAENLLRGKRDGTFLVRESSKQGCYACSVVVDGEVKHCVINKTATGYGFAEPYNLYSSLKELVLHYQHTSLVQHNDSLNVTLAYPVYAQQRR
T2 sequence (P27986 whole entry, the tested form may be a part): as the sequence (P27986 whole entry) above

Row | Molecule | IGF-1-induced PI3K activation [1] | reduction of cell migration [2, 8] | inhibition of PI3K activity ([3]; MDA MB 231 cells, 4 μM peptide, 48 hr, relative to ZF-5-wt-24, FIG. 5B) | PI3K activity ([3]; synthesized peptides, FIG. 5) | inhibitory effect on cell proliferation ([4]; synthesized peptide, increasing concentration, FIG. 6B) | interaction with p85α [5] | reduction of cell migration ([2]; transfected 24 hr, FIG. 3A) | PI3K activation by IGF-1 stimulation ([6]; 100 ng/ml IGF-1 30 min, FIG. 1C) | PI3K activity ([6]; without IGF-1 stimulation, FIG. 5A) | effect on cell proliferation ([4]; transfected with 100 ng DNA, 3 days post-transfection, FIG. 6A) | Akt phosphorylation [7]
1 | ZF-3-wt-21: The peptide not comprising the fifth zinc finger domain of FOG2 (LKCTVCSYTADSVINFHQHLF) [reference compound] | did not inhibit | not observed | – | – | – | – | – | – | – | – | –
2 | ZF-5-m-24: FOG2 mutant peptide with altered fifth zinc finger domain (24 amino acids) (CFECNITFNNLDNYLYLVAKKAYC) | did not inhibit | not observed | approximately 30% | does not affect | does not | – | – | – | – | – | –
3 | FOG2-ZF-5-m: Mutated FOG2 with altered the fifth zinc finger domain (two histidine residues substituted with alanine) (protein, left off: small tags and cut ends) MSRRKQSKPRQIKRPLEDAIEDEEEECPSEETDIISKGDFPLEESFSTEFGPENLSCEEVEYFCNKGDDEGIQETAESDGDTQSEKPGQPGVETDDWDGPGELEVFQKDGERKIQSRQQLPVGTTWGPFPGKMDLNNNSLKTKAQVPMVLTAGPKWLLDVTWQGVEDNKNNCIVYSKGGQLWCTTTKAISEGEELIAFVVDFDSRLQAASQMTLTEGMYPARLLDSIQLLPQQAAMASILPTAIVNKDIFPCKSCGIWYRSERNLQAHLMYYCSGRQREAAPVSEENEDSAHQISSLCPFPQCTKSFSNARALEMHLNSHSGVKMEEFLPPGASLKCTVCSYTADSVINFHQHLFSHLTQAAFRCNHCHFGFQTQRELLQHQELHVPSGKLPRESDMEHSPSATEDSLQPATDLLTRSELPQSQKAMQTKDASSDTELDKCEKKTQLFLTNQRPEIQPTTNKQSFSYTKIKSEPSSPRLASSPVQPNIGPSFPVGPFLSQFSFPQDITMVPQASEILAKMSELVHRRLRHGSSSYPPVIYSPLMPKGATCFECNITFNNLDNYLVAKKAYCSSRWQQMAKSPEFPSVSEKMPEALSPNTGQTSINLLNPAAHSADPENPLLQTSCINSSTVLDLIGPNGKGHDKDFSTQTKKLSTSSNNDDKINGKPVDVKNPSVPLVDGESDPNKTTCEACNITFSRHETYMVHKQYYCATRHDPPLKRSASNKVPAMQRTMRTRKRRKMYEMCLPEQEQRPPLVQQRFLDVANLNNPCTSTQEPTEGLGECYHPRCDIFPGIVSKHLETSLTINKCVPVSKCDTTHSSVSCLEMDVPIDLSKKCLSQSERTTTSPKRLLDYHECTVCKISFNKVENYLAHKQNFCPVTAHQRNDLGQLDGKVFPNPESERNSPDVSYERSIIKCEKNGNLKQPSPNGNLFSSHLATLQGLKVFSEAAQLIATKEENRHLFLPQCLYPGAIKKAKGADQLSPYYGIKPSDYISGSLVIHNTDIEQSRNAENESPKGQASSNGCAALKKDSLPLLPKNRGMVIVNGGLKQDERPAANPQQENISQNPQHEDDHKSPSWISENPLAANENVSPGIPSAEEQLSSIAKGVNGSSQAPTSGKYCRLCDIQFNNLSNFITHKKFYCSSHAAEHVK | – | – | – | – | – | did not | does not; also recorded: not observed | did not inhibit PI3K activation | did not inhibit PI3K activity | did not influence the cell proliferation | increased
